Data: publication PMC10769881, “Plasmid-encoded toxin defence mediates mutualistic microbial interactions” (Nature Microbiology, 2023)

What was measured:
[1] = test system: NC(=O)c1ccc[n+]([C@@H]2O[C@H](COP(=O)(O)OP(=O)(O)OC[C@H]3O[C@@H](n4cnc5c(N)ncnc54)[C@H](O)[C@@H]3O)[C@@H](O)[C@H]2O)c1; assay: purified protein; format: biochemical, Enterococcus faecalis; details: 1,3-propanediol oxidation direction, 37 °C, 1,3-propanediol as co-substrate, its concentration and pH of assay not told, varied: cofactor
OCCCO = assay: purified protein; format: biochemical, Enterococcus faecalis; details: NAD+ close to saturation, 37 °C, pH of assay not told, kcat printed as Vmax per enzyme molecule, closely corresponding to kcat

Question: Which results are given for “1,3-propanediol dehydrogenase (1,3-PD), rumen plasmid-encoded (Enterococcus faecalis)”?
Answer: Km [1]: 0.25 ± 0.04 mM; Km (OCCCO): 17 ± 6 mM; kcat (OCCCO): 0.183 ± 0.017 s⁻¹
